Results from paper PMC8769072, “Proteome‐scale mapping of binding sites in the unstructured regions of the human proteome” (Molecular Systems Biology, 2022).

How the values were obtained:
Test in all cases: fluorescence polarisation; competition: unlabelled peptide in serial dilution displaces a FITC-labelled probe peptide from the bait domain (master mix with protein at four times the KD of the probe, 10 nM probe, 2 mM DTT); 50 mM KPO4 or NaPO4 pH 7.5; triplicates; probe for KEAP1 Kelch: FITC-NFE2L1 228-243, other probes in Dataset EV6
Conditions in all cases: both partners purified
[1] = biological target: T1, TLN1 PTB, tag cleaved, for affinity measurements (human)
T1 chain: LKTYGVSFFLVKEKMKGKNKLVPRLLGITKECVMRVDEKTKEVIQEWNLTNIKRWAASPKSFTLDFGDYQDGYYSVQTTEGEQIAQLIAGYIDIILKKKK

[2] = biological target: KEAP1 Kelch, MBP‐tagged domain, for affinity measurements (human)
Chain of KEAP1 Kelch, MBP‐tagged domain, for affinity measurements (human) (chain, as listed by the source): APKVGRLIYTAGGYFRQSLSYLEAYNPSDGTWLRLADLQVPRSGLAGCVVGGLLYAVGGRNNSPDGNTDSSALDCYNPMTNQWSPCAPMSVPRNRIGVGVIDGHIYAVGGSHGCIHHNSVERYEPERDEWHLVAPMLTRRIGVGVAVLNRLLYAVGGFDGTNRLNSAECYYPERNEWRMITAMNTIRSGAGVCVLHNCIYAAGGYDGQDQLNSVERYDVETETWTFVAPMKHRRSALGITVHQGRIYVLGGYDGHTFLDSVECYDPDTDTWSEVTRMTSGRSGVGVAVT

[3] = biological target: T2, 14‐3‐3 SFN, tag cleaved, for affinity measurements (human)
T2 chain: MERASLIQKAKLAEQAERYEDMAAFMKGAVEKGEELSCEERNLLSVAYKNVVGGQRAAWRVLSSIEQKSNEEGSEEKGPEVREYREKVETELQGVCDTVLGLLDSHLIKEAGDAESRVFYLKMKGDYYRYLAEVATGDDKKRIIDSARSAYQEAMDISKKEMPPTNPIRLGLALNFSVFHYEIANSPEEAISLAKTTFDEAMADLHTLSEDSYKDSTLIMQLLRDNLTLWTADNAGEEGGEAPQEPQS

B1: ITB3_(763–778) peptide from integrin beta‐3, synthetic (peptide)
peptide: AKWDTANNPLYKEATS
notes: integrin beta-3, human, residues 763-778; source: synthetic peptide, bought: GeneCust
B1 was tested. Which Ki [1] did it give?
The Ki was 500 µM.

How did the “fold loss of affinity against the wild-type peptide” value [2] turn out when Ac-YDEKTGEFLPIQPAQH-NH2 [NFE2L2 E79K peptide, synthetic] was run?
Its value is 1000 fold.

Which “fold loss of affinity against the wild-type peptide” value [2] does the source give for Ac-YDEEKGEFLPIQPAQH-NH2 [NFE2L2 T80K peptide, synthetic] here?
Its value is 1000 fold.

B2: PTTG1_(4–19) peptide from securin, synthetic (peptide, UniProt O95997 4-19, looked up)
peptide: LIYVDKENGEPGTRVV
notes: securin, human, residues 4-19 (NGE containing); source: synthetic peptide, bought: GeneCust
With B2 as the binder, how does the Ki [2] read?
Its Ki is 1 µM.

B3: MAP1A_(1836–1851) peptide, synthetic (peptide)
peptide: PSWLADIPPWVPKDRP
notes: microtubule-associated protein 1A, human, residues 1836-1851; source: synthetic peptide, bought: GeneCust
For B3, which Ki [3] is on record?
The Ki was 355 µM.
